The target of experiment [1] is T1, Human OX40 expressed on the cell surface (activated human CD4+ OX40+ T cells) (human, UniProt P43489 29-277).
T1 construct: whole, on cells; Also used as the target for the functional assays on human PBMC; also called cell-surface expressed OX40
T1 sequence (looked up): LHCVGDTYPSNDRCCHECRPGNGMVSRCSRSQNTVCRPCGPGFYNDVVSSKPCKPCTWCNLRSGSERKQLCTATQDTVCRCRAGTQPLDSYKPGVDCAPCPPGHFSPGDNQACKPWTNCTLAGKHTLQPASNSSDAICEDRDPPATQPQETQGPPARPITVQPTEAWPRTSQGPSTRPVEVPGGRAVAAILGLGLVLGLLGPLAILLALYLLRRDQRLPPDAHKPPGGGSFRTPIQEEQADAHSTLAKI
In words: flow cytometry competition on activated human CD4+OX40+ T cells; competitor OX40L (biotinylated CD252 muCD8) at 2 µg/mL. How it is done:
(§1) The capacity of A26 Fab-dsFv to block the interaction between cell-surface expressed OX40 and recombinant OX40L was measured using a flow cytometry-based ligand blocking assay. Briefly, activated human CD4⁺OX40⁺ T cells were pre-incubated with a titration of A26 Fab-Fv. Recombinant OX40L was subsequently added to the cells and allowed to bind in the presence of A26 Fab-dsFv. The proportion of OX40L bound was then detected by flow cytometry using a labelled secondary reagent.
(§2) PBMC were isolated by separation on a Ficoll gradient and activated with 4 μg/mL PHA-L (Sigma) for 3 days at 37° C., 5% CO₂, 100% humidity. CD4⁺ T cells were then purified from the culture by negative selection using MACS columns (Miltenyi Biotech, CD4⁺ T cell isolation kit II). 2×10⁵ CD4⁺ T cells were incubated in the presence of A26 Fab-dsFv (final concentration range 10 μg/mL-0.000056 μg/mL (136.6 nM-0.000765 nM)) for 30 minutes at 4° C. OX40L (biotinylated CD252 muCD8, Ancell) was added at a final concentration of 2 μg/mL and incubated for a further 30 minutes at 4° C. Cells were washed and OX40L binding detected by incubation with PE-labelled streptavadin (Jackson Immunoresearch) prior to analysis by flow cytometry using a FACS Canto (Becton Dickinson). A matched non-OX40 binding Fab-dsFv was used as a control. The inhibition curve was analysed by non-linear regression (Graphpad Prism®) to determine the IC₅₀. […]
For orientation: A flow cytometer gives signals particle by particle.

Experiment [2] has as its target T1, Human OX40 expressed on the cell …. In words: flow cytometry binding on activated human CD4+ OX40+ T cells in 5% HSA, % maximal binding, mean of 4 or 5 donors. How it is done:
Binding of AlexaFluor488-labelled A26 Fab-Fv to activated human CD4⁺0 X40⁺ T cells was measured by flow cytometry across a 5-log concentration range.
(§3) PBMC were isolated by separation on a Ficoll gradient and activated with 4 μg/mL PHA-L for 3 days at 37° C., 5% CO₂, 100% humidity. Following this, CD4⁺ T cells were isolated by negative selection using magnetic beads (CD4⁺ T cell Isolation Kit II for Human; Miltenyi Biotec). Approximately 1×10⁵ cells were incubated in the presence of antibody in either Facs buffer (PBS/0.2% BSA/0.09% NaN3) or Facs buffer supplemented with 5% HSA, at 4° C. The final concentration of the antibody ranged from 48 nM-0.0005 nM. The cells were washed in PBS prior to analysis by flow cytometry using a FACScalibur (Becton Dickinson). Titration data sets were also produced for isotype control antibodies for each A26 format to determine non specific binding. The number of moles of bound antibody was calculated by using interpolated values from a standard curve generated from beads comprised of differing but known amounts of fluorescent dye. Geometric mean fluorescence values were determined in the flow cytometric analyses of cells and beads. Non-specific binding was subtracted from the A26 Fab-Fv values and the specific binding curve thus generated analysed by non-linear regression using a one-site binding equation (Graphpad Prism®) to determine the KD.

Experiment [3] shares this target. Briefly: cell-based or functional assay.
The target in experiment [4] is T2, Human OX40 (soluble analyte in BIAcore) (human, UniProt P43489 29-214, limits assumed).
T2 construct: also called hOX40
T2 sequence (looked up): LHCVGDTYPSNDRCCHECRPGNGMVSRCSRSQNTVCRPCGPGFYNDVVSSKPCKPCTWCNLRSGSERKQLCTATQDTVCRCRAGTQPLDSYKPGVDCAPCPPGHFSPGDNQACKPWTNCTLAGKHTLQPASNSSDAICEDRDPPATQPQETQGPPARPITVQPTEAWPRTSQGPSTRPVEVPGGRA
In words: SPR (BIAcore T200), antibody captured by anti-human F(ab′)2, human OX40 as analyte; average of 4. How it is done: (§4) BIA (Biamolecular Interaction Analysis) was performed using a BIAcore T200 (GE Healthcare). Affinipure F(ab′)₂ Fragment goat anti-human IgG, F(ab′)₂ fragment specific (Jackson ImmunoResearch) was immobilised on a CM5 Sensor Chip via amine coupling chemistry to a capture level of ≈5000 response units (RUs). HBS-EP buffer (10 mM HEPES pH 7.4, 0.15 M NaCl, 3 mM EDTA, 0.05% Surfactant P20, GE Healthcare) was used as the running buffer with a flow rate of 10 μL/min. A 10 μL injection of A26 Fab′ at 0.5 μg/mL or A26Fab-dsFv at 1 μg/mL was used for capture by the immobilised anti-human IgG-F(ab′)₂. Human OX40 was titrated over the captured A26 at various concentrations (25 nM to 1.5625 nM) at a flow rate of 30 μL/min. The surface was regenerated by 2×10 μL injection of 50 mM HCl, followed by a 5 μL injection of 5 mM NaOH at a flowrate of 10 μL/min. Background subtraction binding curves were analysed using the T200evaluation software (version 1.0) following standard procedures. Kinetic parameters were determined from the fitting algorithm.
On the technique in general: Surface plasmon resonance follows binding to a sensor surface in real time, without labels.

For experiment [5], the target named is T1, Human OX40 expressed on the cell …. Briefly: flow cytometry ligand-blocking assay on activated human CD4+ OX40+ T cells; blocked ligand: recombinant OX40L (biotinylated CD252 muCD8). The procedure:
as §1, §2

Experiment [6] has the same target. Briefly: cell-based or functional assay. This is another data set of the same source.
Experiment [7] shares this target. In words: flow cytometry saturation binding on activated human CD4+ OX40+ T cells, with 5% HSA. How it is done:
(§5) Specific binding of antibody to receptor at equilibrium across a range of antibody concentrations was used to determine KD, assuming that only a very small fraction of antibody was bound to receptor at any point on the binding curve.
as §3, with “Titration data sets were also produced for isotype control antibodies for each A26 format to determine non specific binding.” left out

Experiment [8] has the same target. Briefly: flow cytometry saturation binding on activated human CD4+ OX40+ T cells, no HSA. How it is done: as §5
as §3, with “Titration data sets were also produced for isotype control antibodies for each A26 format to determine non specific binding.” left out

A further experiment addresses T3, Human Serum Albumin (human, UniProt P02768 25-609).
T3 construct: also called HSA; HAS [sic]
In words: SPR (BIAcore T200), Fab-Fv captured by anti-human F(ab′)2, albumin as analyte; average of 3. How it is done: as §4, with “Fab-Fv” for “A26 Fab′”, “0.75” for “0.5 μg/mL or A26Fab-dsFv at 1”, “Serum Albumin (HSA), Mouse Serum albumin (MSA) and Cynomolgus Serum Albumin (CSA)” for “OX40”, “Fab-Fv” for “A26”, “(50” for “(25”, “6.25” for “1.5625”

A further experiment concerns the target T4, Cynomolgus Serum Albumin (cynomolgus, UniProt A2V9Z4 25-608).
T4 construct: also called CSA
The experiment is described as above. How it is done: as §4, with “Fab-Fv” for “A26 Fab′”, “0.75” for “0.5 μg/mL or A26Fab-dsFv at 1”, “Serum Albumin (HSA), Mouse Serum albumin (MSA) and Cynomolgus Serum Albumin (CSA)” for “OX40”, “Fab-Fv” for “A26”, “(50” for “(25”, “6.25” for “1.5625”

For the next experiment, the target named is T5, Mouse Serum albumin (mouse, UniProt P07724 25-608).
T5 construct: also called MSA
The experiment is described as above. How it is done: as §4, with “Fab-Fv” for “A26 Fab′”, “0.75” for “0.5 μg/mL or A26Fab-dsFv at 1”, “Serum Albumin (HSA), Mouse Serum albumin (MSA) and Cynomolgus Serum Albumin (CSA)” for “OX40”, “Fab-Fv” for “A26”, “(50” for “(25”, “6.25” for “1.5625”

B1: A26 Fab′-PEG (A26 Fab-40K PEG′ described in WO2010/096418) (Fab, V domains shown)
VH: EVQLVESGGGLVQPGGSLRLSCAASGFTFTNYGIHWIRQAPGKGLEWVASISPSGGLTYYRDSVKGRFTISRDDAKNSPYLQMNSLRAEDTAVYYCATGGEGIFDYWGQGTLVTVSS
VL: DIQMTQSPSSLSASVGDRVTITCRATQSIYNALAWYQQKPGKAPKLLIYNANTLHTGVPSRFSASGSGTDSTLTISSLQPEDFATYYCQQYYDYPLTFGGGTKVEIKR
modifications: 40K PEG; site of attachment not given
The molecule B1 registered an EC50 in experiment [1] of 0.739 nM. Besides, in experiment [2], the “EC50 (read off the curve)” value is about 0.2 nM. In experiment [3], the “Inhibition of IL-5 Production EC50 (human HDM in vitro assay)” value worked out at 1.31 nM and the “Inhibition of IL-13 Production EC50 (human HDM in vitro assay)” value turned out to be 0.928 nM. Besides, in [4], the Kd was found to be 0.0484 nM, the koff is 1.12e-05 s⁻¹ and the kon came to 233000 M⁻¹ s⁻¹. Moreover, the “IC50 (read off the curve)” value in [5] is about 0.7 nM. Also, the “EC50 for inhibition of human MLR proliferative response” value in experiment [6] was 0.88 nM. This molecule yielded a Kd in [7] of 0.23 nM. The molecule further gave a Kd in experiment [8] of 0.322 nM.

B2: A26 Fab′ (Fab, V domains shown)
VH: EVQLVESGGGLVQPGGSLRLSCAASGFTFTNYGIHWIRQAPGKGLEWVASISPSGGLTYYRDSVKGRFTISRDDAKNSPYLQMNSLRAEDTAVYYCATGGEGIFDYWGQGTLVTVSS
VL: DIQMTQSPSSLSASVGDRVTITCRATQSIYNALAWYQQKPGKAPKLLIYNANTLHTGVPSRFSASGSGTDSTLTISSLQPEDFATYYCQQYYDYPLTFGGGTKVEIKR
In turn, B2 had an EC50 in [1] of 0.242 nM. Further, the “EC50 (read off the curve)” value in [2] is about 0.09 nM. In addition, in experiment [3], the “Inhibition of IL-5 Production EC50 (human HDM in vitro assay)” value is 0.68 nM and the “Inhibition of IL-13 Production EC50 (human HDM in vitro assay)” value is 0.335 nM. Further, in experiment [4], the Kd is at most 0.0468 nM, the koff is at most 1e-05 s⁻¹ and the kon amounted to 218000 M⁻¹ s⁻¹. Moreover, the “IC50 (read off the curve)” value in experiment [5] was about 0.3 nM. In addition, in experiment [6], the “EC50 for inhibition of human MLR proliferative response” value worked out at 0.25 nM. This molecule also yielded a Kd in [7] of 0.068 nM. In [8], this molecule displayed a Kd of 0.085 nM.

B3: A26 Fab-dsFv (645gH5gL4) (bispecific antibody)
heavy: EVQLVESGGGLVQPGGSLRLSCAASGFTFTNYGIHWIRQAPGKGLEWVASISPSGGLTYYRDSVKGRFTISRDDAKNSPYLQMNSLRAEDTAVYYCATGGEGIFDYWGQGTLVTVSSASTKGPSVFPLAPSSKSTSGGTAALGCLVKDYFPEPVTVSWNSGALTSGVHTFPAVLQSSGLYSLSSVVTVPSSSLGTQTYICNVNHKPSNTKVDKKVEPKSCSGGGGSGGGGTGGGGSEVQLLESGGGLVQPGGSLRLSCAVSGIDLSNYAINWVRQAPGKCLEWIGIIWASGTTFYATWAKGRFTISRDNSKNTVYLQMNSLRAEDTAVYYCARTVPGYSTAPYFDLWGQGTLVTVSS
light: DIQMTQSPSSLSASVGDRVTITCRATQSIYNALAWYQQKPGKAPKLLIYNANTLHTGVPSRFSASGSGTDSTLTISSLQPEDFATYYCQQYYDYPLTFGGGTKVEIKRTVAAPSVFIFPPSDEQLKSGTASVVCLLNNFYPREAKVQWKVDNALQSGNSQESVTEQDSKDSTYSLSSTLTLSKADYEKHKVYACEVTHQGLSSPVTKSFNRGECGGGGSGGGGSGGGGSDIQMTQSPSSVSASVGDRVTITCQSSPSVWSNFLSWYQQKPGKAPKLLIYEASKLTSGVPSRFSGSGSGTDFTLTISSLQPEDFATYYCGGGYSSISDTTFGCGTKVEIKRT
notes: also called A26 Fab-Fv; Fab-Fv
B3: the Kd came out at 2.93 nM in the experiment with Human Serum Albumin, 2.66 nM in the experiment with Cynomolgus Serum Albumin and 4.16 nM in the experiment with Mouse Serum albumin. Moreover, the results for the koff with Human Serum Albumin, with Cynomolgus Serum Albumin and in the experiment with Mouse Serum albumin were 0.000163 s⁻¹, 0.000189 s⁻¹ and 0.000368 s⁻¹, respectively. Further, the values for the kon with Human Serum Albumin, in the experiment with Cynomolgus Serum Albumin and with Mouse Serum albumin were 58400 M⁻¹ s⁻¹, 71000 M⁻¹ s⁻¹ and 88600 M⁻¹ s⁻¹, respectively.

For orientation: EC50 means the concentration that produces a half-maximal response. Higher therefore signals a less potent agent. For orientation: EC50 (read off the curve) means the concentration needed to bring the measured effect to its halfway point. High values mean weaker potency, low ones greater potency. The Kd is the concentration at which binding is half-saturated. Higher therefore signals weaker binding. Usually koff stands for the rate constant with which the complex falls apart. A word on the kon: it is the rate constant with which the complex forms. The low end stands for slower complex formation, the high end for faster complex formation.

The values above are taken from patent US20160031974A1 (UCB, published 2016).
